{"source": "patent US20180087042A1", "about": "(OPKO BIOLOGICS, published 2018)", "test_in_all_cases": "cell-based or functional assay", "key": {"[1]": {"target": "MOD-5014 (FVIIa-CTP3: activated Factor VII with three CTP peptides attached at the C-terminus) (human) (UniProt P08709)", "sequence (P08709 61-212, chain 1 of 2)": "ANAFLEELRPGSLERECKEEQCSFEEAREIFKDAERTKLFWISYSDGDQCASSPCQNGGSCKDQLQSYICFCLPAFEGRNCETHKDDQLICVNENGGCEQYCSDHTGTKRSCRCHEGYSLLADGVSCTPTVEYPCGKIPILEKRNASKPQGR", "sequence (P08709 other isoform, or with tags, fused parts or gaps, chain 2 of 2)": "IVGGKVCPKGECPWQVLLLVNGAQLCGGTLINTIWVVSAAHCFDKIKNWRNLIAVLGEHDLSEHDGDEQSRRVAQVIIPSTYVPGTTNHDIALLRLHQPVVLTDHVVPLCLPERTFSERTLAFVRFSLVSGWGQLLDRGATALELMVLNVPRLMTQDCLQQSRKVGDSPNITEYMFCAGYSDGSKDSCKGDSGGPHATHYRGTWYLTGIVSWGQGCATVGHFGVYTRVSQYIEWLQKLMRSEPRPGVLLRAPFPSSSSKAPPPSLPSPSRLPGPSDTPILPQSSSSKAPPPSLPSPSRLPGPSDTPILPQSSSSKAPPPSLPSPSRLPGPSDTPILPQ"}, "[2]": {"target": "NovoSeven® (commercial recombinant human FVIIa) (human) (UniProt P08709)", "sequence (P08709 61-466 limits assumed)": "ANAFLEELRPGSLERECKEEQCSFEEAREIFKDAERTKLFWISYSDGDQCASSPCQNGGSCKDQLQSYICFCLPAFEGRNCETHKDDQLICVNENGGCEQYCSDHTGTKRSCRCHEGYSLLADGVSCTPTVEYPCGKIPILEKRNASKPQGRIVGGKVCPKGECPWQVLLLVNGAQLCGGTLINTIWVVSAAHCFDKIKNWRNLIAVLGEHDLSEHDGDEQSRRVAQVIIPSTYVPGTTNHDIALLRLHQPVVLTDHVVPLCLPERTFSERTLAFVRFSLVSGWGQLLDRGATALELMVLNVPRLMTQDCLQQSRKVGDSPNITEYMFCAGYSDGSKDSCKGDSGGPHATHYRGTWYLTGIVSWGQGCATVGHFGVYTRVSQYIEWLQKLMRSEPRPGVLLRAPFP"}, "Factor X": {"target": "Factor X (UniProt P00742 41-488, limits assumed)", "sequence (P00742 41-488 limits assumed)": "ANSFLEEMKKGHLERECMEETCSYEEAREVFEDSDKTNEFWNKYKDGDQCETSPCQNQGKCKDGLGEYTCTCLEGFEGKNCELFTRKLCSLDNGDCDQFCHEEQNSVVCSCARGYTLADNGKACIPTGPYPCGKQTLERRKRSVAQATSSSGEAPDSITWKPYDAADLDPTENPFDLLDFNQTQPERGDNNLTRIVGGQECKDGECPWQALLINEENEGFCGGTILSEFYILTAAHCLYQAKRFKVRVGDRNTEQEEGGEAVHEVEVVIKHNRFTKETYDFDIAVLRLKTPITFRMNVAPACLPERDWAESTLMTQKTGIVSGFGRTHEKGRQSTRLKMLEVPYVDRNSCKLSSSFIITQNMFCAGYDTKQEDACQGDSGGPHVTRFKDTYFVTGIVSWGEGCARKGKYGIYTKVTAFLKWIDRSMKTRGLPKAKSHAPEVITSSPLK"}}}
{"substance": "Anti thrombin III (ATIII) (from UniProt P01008 33-464)", "values": [{"measurement": "% Inhibition of clotting activity, AT 1.050 ng/mL", "setting": "[1]", "result": 25, "unit": "%"}, {"measurement": "% Inhibition of clotting activity, AT 10.5 ng/mL", "setting": "[1]", "result": 28, "unit": "%"}, {"measurement": "% Inhibition of clotting activity, AT 105 ng/mL", "setting": "[1]", "result": 25, "unit": "%"}, {"measurement": "% Inhibition of clotting activity, AT 10,500 ng/mL", "setting": "[1]", "result": 25, "unit": "%"}, {"measurement": "% Inhibition of clotting activity, AT 105000 ng/mL", "setting": "[1]", "result": 62, "unit": "%"}, {"measurement": "% Inhibition of clotting activity, AT 525000 ng/mL", "setting": "[1]", "result": 100, "unit": "%"}, {"measurement": "Activity (mU/mL), Staclot clotting, AT 1.050 ng/mL", "setting": "[1]", "result": 52.9, "unit": "mU/mL"}, {"measurement": "Activity (mU/mL), Staclot clotting, AT 10.5 ng/mL", "setting": "[1]", "result": 50.7, "unit": "mU/mL"}, {"measurement": "Activity (mU/mL), Staclot clotting, AT 105 ng/mL", "setting": "[1]", "result": 53.3, "unit": "mU/mL"}, {"measurement": "Activity (mU/mL), Staclot clotting, AT 1,050 ng/mL", "setting": "[1]", "result": 53.4, "unit": "mU/mL"}, {"measurement": "Activity (mU/mL), Staclot clotting, AT 10,500 ng/mL", "setting": "[1]", "result": 53, "unit": "mU/mL"}, {"measurement": "Activity (mU/mL), Staclot clotting, AT 105000 ng/mL", "setting": "[1]", "result": 27, "unit": "mU/mL"}, {"measurement": "Activity (mU/mL), Staclot clotting, AT 525000 ng/mL", "setting": "[1]", "result": 0, "unit": "mU/mL"}, {"measurement": "O.D, FX activation by MOD-5014 (0.7 ng/ml) at AT 0.16 µg/ml", "setting": "[1]", "result": 1.18, "unit": "O.D"}, {"measurement": "O.D, FX activation by MOD-5014 (0.7 ng/ml) at AT 0.8 µg/ml", "setting": "[1]", "result": 1.07, "unit": "O.D"}, {"measurement": "O.D, FX activation by MOD-5014 (0.7 ng/ml) at AT 4 µg/ml", "setting": "[1]", "result": 1.14, "unit": "O.D"}, {"measurement": "O.D, FX activation by MOD-5014 (0.7 ng/ml) at AT 20 µg/ml", "setting": "[1]", "result": 1.11, "unit": "O.D"}, {"measurement": "O.D, FX activation by MOD-5014 (0.7 ng/ml) at AT 100 µg/ml", "setting": "[1]", "result": 0.974, "unit": "O.D"}, {"measurement": "O.D, FX activation by MOD-5014 (0.7 ng/ml) at AT 500 µg/ml", "setting": "[1]", "result": 0.975, "unit": "O.D"}, {"measurement": "O.D, FX activation by MOD-5014 (0.7 ng/ml) at AT 1680 µg/ml", "setting": "[1]", "result": 0.656, "unit": "O.D"}, {"measurement": "O.D., FX activation by MOD-5014 (0.7 ng/ml) with AT III 20 µg/ml and heparin 0.002 U/µl", "setting": "[1]", "result": 1.29, "unit": "O.D."}, {"measurement": "O.D., FX activation by MOD-5014 (0.7 ng/ml) with AT III 20 µg/ml and heparin 0.01 U/µl", "setting": "[1]", "result": 1.14, "unit": "O.D."}, {"measurement": "O.D., FX activation by MOD-5014 (0.7 ng/ml) with AT III 20 µg/ml and heparin 0.25 U/µl", "setting": "[1]", "result": 0.017, "unit": "O.D."}, {"measurement": "O.D., FX activation by MOD-5014 (0.7 ng/ml) with AT III 20 µg/ml and heparin 1.25 U/µl", "setting": "[1]", "result": 0.896, "unit": "O.D."}, {"measurement": "O.D., FX activation by MOD-5014 (0.7 ng/ml) with AT III 20 µg/ml and heparin 6.25 U/µl", "setting": "[1]", "result": 1.02, "unit": "O.D."}, {"measurement": "% Inhibition of clotting activity, AT 1.050 ng/mL", "setting": "[2]", "result": 21, "unit": "%"}, {"measurement": "% Inhibition of clotting activity, AT 105 ng/mL", "setting": "[2]", "result": 20, "unit": "%"}, {"measurement": "% Inhibition of clotting activity, AT 10,500 ng/mL", "setting": "[2]", "result": 30, "unit": "%"}, {"measurement": "% Inhibition of clotting activity, AT 525000 ng/mL", "setting": "[2]", "result": 100, "unit": "%"}, {"measurement": "Activity (mU/mL), Staclot clotting, AT 1.050 ng/mL", "setting": "[2]", "result": 69.5, "unit": "mU/mL"}, {"measurement": "Activity (mU/mL), Staclot clotting, AT 10.5 ng/mL", "setting": "[2]", "result": 68.4, "unit": "mU/mL"}, {"measurement": "Activity (mU/mL), Staclot clotting, AT 105 ng/mL", "setting": "[2]", "result": 70.2, "unit": "mU/mL"}, {"measurement": "Activity (mU/mL), Staclot clotting, AT 1,050 ng/mL", "setting": "[2]", "result": 66.8, "unit": "mU/mL"}, {"measurement": "Activity (mU/mL), Staclot clotting, AT 10,500 ng/mL", "setting": "[2]", "result": 61.5, "unit": "mU/mL"}, {"measurement": "Activity (mU/mL), Staclot clotting, AT 105000 ng/mL", "setting": "[2]", "result": 30.6, "unit": "mU/mL"}, {"measurement": "Activity (mU/mL), Staclot clotting, AT 525000 ng/mL", "setting": "[2]", "result": 0, "unit": "mU/mL"}, {"measurement": "O.D, FX activation by NovoSeven (0.7 ng/ml) at AT 0.16 µg/ml", "setting": "[2]", "result": 1.23, "unit": "O.D"}, {"measurement": "O.D, FX activation by NovoSeven (0.7 ng/ml) at AT 4 µg/ml", "setting": "[2]", "result": 1.17, "unit": "O.D"}, {"measurement": "O.D, FX activation by NovoSeven (0.7 ng/ml) at AT 20 µg/ml", "setting": "[2]", "result": 1.15, "unit": "O.D"}, {"measurement": "O.D, FX activation by NovoSeven (0.7 ng/ml) at AT 100 µg/ml", "setting": "[2]", "result": 1.14, "unit": "O.D"}, {"measurement": "O.D, FX activation by NovoSeven (0.7 ng/ml) at AT 500 µg/ml", "setting": "[2]", "result": 0.933, "unit": "O.D"}, {"measurement": "O.D, FX activation by NovoSeven (0.7 ng/ml) at AT 1680 µg/ml", "setting": "[2]", "result": 0.784, "unit": "O.D"}, {"measurement": "O.D., FX activation by NovoSeven (0.7 ng/ml) with AT III 20 µg/ml and heparin 0.002 U/µl", "setting": "[2]", "result": 1.24, "unit": "O.D."}, {"measurement": "O.D., FX activation by NovoSeven (0.7 ng/ml) with AT III 20 µg/ml and heparin 0.01 U/µl", "setting": "[2]", "result": 1.2, "unit": "O.D."}, {"measurement": "O.D., FX activation by NovoSeven (0.7 ng/ml) with AT III 20 µg/ml and heparin 0.25 U/µl", "setting": "[2]", "result": 1.04, "unit": "O.D."}, {"measurement": "O.D., FX activation by NovoSeven (0.7 ng/ml) with AT III 20 µg/ml and heparin 1.25 U/µl", "setting": "[2]", "result": 0.98, "unit": "O.D."}, {"measurement": "O.D., FX activation by NovoSeven (0.7 ng/ml) with AT III 20 µg/ml and heparin 6.25 U/µl", "setting": "[2]", "result": 1, "unit": "O.D."}]}
{"substance": "NovoSeven® (commercial recombinant human FVIIa) (from UniProt P08709 61-466) (enzyme)", "values": [{"measurement": "EC50 of Factor X activation (BIOPHEN FVII chromogenic assay)", "setting": "Factor X", "result": 0.38, "unit": "ng/mL"}, {"measurement": "O.D, FX activation at rFVIIa 0.00128 ng/ml", "setting": "Factor X", "result": 0.123, "unit": "O.D"}, {"measurement": "O.D, FX activation at rFVIIa 0.00640 ng/ml", "setting": "Factor X", "result": 0.133, "unit": "O.D"}, {"measurement": "O.D, FX activation at rFVIIa 0.0320 ng/ml", "setting": "Factor X", "result": 0.138, "unit": "O.D"}, {"measurement": "O.D, FX activation at rFVIIa 0.160 ng/ml", "setting": "Factor X", "result": 0.178, "unit": "O.D"}, {"measurement": "O.D, FX activation at rFVIIa 0.80 ng/ml", "setting": "Factor X", "result": 0.303, "unit": "O.D"}, {"measurement": "O.D, FX activation at rFVIIa 4.00 ng/ml", "setting": "Factor X", "result": 0.352, "unit": "O.D"}, {"measurement": "O.D, FX activation at rFVIIa 20.00 ng/ml", "setting": "Factor X", "result": 0.365, "unit": "O.D"}, {"measurement": "O.D, FX activation at rFVIIa 100.00 ng/ml", "setting": "Factor X", "result": 0.363, "unit": "O.D"}]}
